In publication PMC4158885 (The EMBO Journal, 2014):

Assays:
[1] = target: T1, ctPan2 Δ343–375 (PID deletion in full-length ctPan2) (Chaetomium thermophilum, UniProt G0SAK8 1-1170, Δ343–375); experiment: SEC; separately purified ctPan2 constructs and ctPan3 PKC dimer mixed 1:1 at 1 μM, 15 min at room temperature; Superdex 200 Increase 3.2/300 in 20 mM Tris pH 8.0, 500 mM NaCl, 2 mM TCEP; fractions on SDS–PAGE; conditions: both partners purified
T1 sequence (looked up): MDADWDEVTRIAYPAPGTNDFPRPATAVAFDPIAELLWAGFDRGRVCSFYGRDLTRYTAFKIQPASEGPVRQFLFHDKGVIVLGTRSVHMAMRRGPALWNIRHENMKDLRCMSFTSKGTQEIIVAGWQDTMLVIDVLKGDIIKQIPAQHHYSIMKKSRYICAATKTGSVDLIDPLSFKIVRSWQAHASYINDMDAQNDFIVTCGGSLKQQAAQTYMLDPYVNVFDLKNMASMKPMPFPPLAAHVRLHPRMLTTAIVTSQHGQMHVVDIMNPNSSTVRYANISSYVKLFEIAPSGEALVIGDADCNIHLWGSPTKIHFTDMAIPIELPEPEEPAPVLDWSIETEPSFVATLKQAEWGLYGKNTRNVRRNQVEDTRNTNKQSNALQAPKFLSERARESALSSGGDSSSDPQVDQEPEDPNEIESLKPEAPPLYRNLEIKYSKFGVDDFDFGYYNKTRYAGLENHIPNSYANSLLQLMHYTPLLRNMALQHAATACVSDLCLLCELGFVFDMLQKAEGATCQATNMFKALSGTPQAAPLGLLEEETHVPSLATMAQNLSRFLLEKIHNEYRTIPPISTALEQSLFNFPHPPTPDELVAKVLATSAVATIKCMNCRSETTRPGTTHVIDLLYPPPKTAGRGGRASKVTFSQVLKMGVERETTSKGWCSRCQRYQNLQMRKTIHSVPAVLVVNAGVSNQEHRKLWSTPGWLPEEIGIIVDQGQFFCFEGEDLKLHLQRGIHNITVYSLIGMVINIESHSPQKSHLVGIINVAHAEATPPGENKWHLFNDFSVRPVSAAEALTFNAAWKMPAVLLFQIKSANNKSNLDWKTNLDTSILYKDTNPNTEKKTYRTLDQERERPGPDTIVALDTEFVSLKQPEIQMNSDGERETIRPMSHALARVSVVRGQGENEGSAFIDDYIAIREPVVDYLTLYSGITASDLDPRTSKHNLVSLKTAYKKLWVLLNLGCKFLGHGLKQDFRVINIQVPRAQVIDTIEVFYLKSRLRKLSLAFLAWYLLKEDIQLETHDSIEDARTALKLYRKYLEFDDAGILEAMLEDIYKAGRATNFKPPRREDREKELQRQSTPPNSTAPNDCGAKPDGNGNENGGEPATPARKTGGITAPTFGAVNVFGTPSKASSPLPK

[2] = target: the molecule itself; experiment: crystal structure; ctPan3 PKC bound to ctPan2 343–458, P21 symmetry, two copies of the complex in the asymmetric unit, molecular replacement

binding result [1]: binds
B1: ctPan3 pseudokinase/C-terminal domain (PKC, residues 205–640), purified from E. coli (domain or fragment, Chaetomium thermophilum, UniProt G0S0Y3 205-640, looked up)
chain: RQELQPWQRATYDFFMPQNLREDLQKKQFATLQVIPNSGLPQLEHWHSLVPLDTSNRKNTSCFGYPSWVYKAQNSRNGRHYALRRLEGYRLTNEKAILNVMKDWKKIKNASIVTIHEVFTTREFGDSSLIFAYDFHPLSKTLQEHHFQPIHGNRYRPPPAVPENTIWGYICQIANALKTIHSNRLAARCLEPSKIILTDINRIRLSACAILDVVQFGMNSRSVVELQQEDFVKFGKLILSLATGTLPAHLNNIPAALETLGNKYSANLKSAVNWLLDTSSGETKTIEHFMTGIASQMTTFFDLALQDNDEKLFHLAREVENGRIARSLMKLLTILERGDYDGVPSWSETGDRYQLKLFRDYVFHRVDADGKPNLSIGHMLTCMSKLEAGVDENILLTSRDNETVFVLSYRELRQMYDRAFNELVKASKTGAPGANT
notes: Pan3, Chaetomium thermophilum, pseudokinase (242-497), coiled coil (499-538) and C-terminal domain (555-640), construct residues 205-640; The crystals of ctPan3 PKC alone (PDB 4CYI) were of Se-Met-labelled protein; also called ctPan3 PKC; ctPan3 PKC dimer; source: E. coli, purified (glutathione Sepharose)
binding result [2]: binds
